pIC50, pKd: −log10 of the molar value.
Legend:
HLA-B*08:01 = experiment: IEDB peptide-MHC binding, purified MHC/direct/fluorescence; filed as Kd, often an IC50 or EC50 that approximates it; ≥ and ≤ were set here for values at or beyond the usual limits of such assays
HLA-A*26:01 = experiment: as above
HLA-A*01:01 = experiment: as above
HLA-A*03:01 = experiment: as above
HLA-A*02:01 [1] = experiment: as above
HLA-B*07:02 = experiment: as above
HLA-A*69:01 = experiment: as above
HLA-B*73:01 = experiment: as above
HLA-B*40:01 = experiment: as above
HLA-A*31:01 = experiment: as above
HLA-B*58:01 = experiment: as above
HLA-B*35:01 = experiment: as above; settings: source organism: Giardia lamblia ATCC 50803
HLA-B*44:02 = experiment: as above
HLA-B*27:05 = experiment: as above
HLA-B*15:01 = experiment: as above
HLA-A*11:01 = experiment: as above
HLA-A*02:01 [2] = experiment: IEDB peptide-MHC binding, cellular MHC/competitive/fluorescence; ≥ and ≤ were set here for values at or beyond the usual limits of such assays
HLA-A*02:03 = experiment: IEDB peptide-MHC binding, purified MHC/direct/fluorescence; filed as Kd, often an IC50 or EC50 that approximates it; ≥ and ≤ were set here for values at or beyond the usual limits of such assays; settings: source organism: Listeria monocytogenes serotype 4b str. H7858
HLA-C*05:01 = experiment: as above
HLA-B*15:17 = experiment: as above; settings: source organism: Listeria monocytogenes serotype 4b str. H7858
HLA-B*57:01 = experiment: as above; settings: source organism: Listeria monocytogenes serotype 4b str. H7858
HLA-A*68:02 = experiment: as above; settings: source organism: Listeria monocytogenes serotype 4b str. H7858
HLA-B*46:01 = experiment: as above; settings: source organism: Listeria monocytogenes serotype 4b str. H7858
HLA-B*18:01 = experiment: as above; settings: source organism: Listeria monocytogenes serotype 4b str. H7858
HLA-A*24:03 [3] = experiment: as above; settings: source organism: Listeria monocytogenes serotype 4b str. H7858
HLA-A*02:16 = experiment: as above; settings: source organism: Listeria monocytogenes serotype 4b str. H7858
HLA-A*02:12 = experiment: as above; settings: source organism: Listeria monocytogenes serotype 4b str. H7858
HLA-A*02:11 = experiment: as above; settings: source organism: Listeria monocytogenes serotype 4b str. H7858
HLA-A*29:02 = experiment: as above; settings: source organism: Listeria monocytogenes serotype 4b str. H7858
HLA-B*51:01 = experiment: as above; settings: source organism: Listeria monocytogenes serotype 4b str. H7858
HLA-A*02:19 = experiment: as above; settings: source organism: Listeria monocytogenes serotype 4b str. H7858
HLA-B*27:03 = experiment: as above; settings: source organism: Listeria monocytogenes serotype 4b str. H7858
HLA-A*24:03 [4] = experiment: IEDB peptide-MHC binding, purified MHC/competitive/fluorescence; filed as Kd, often an IC50 or EC50 that approximates it; ≥ and ≤ were set here for values at or beyond the usual limits of such assays; settings: source organism: Bacillus cereus G9241
HLA-C*14:02 = experiment: IEDB peptide-MHC binding, purified MHC/direct/fluorescence; filed as Kd, often an IC50 or EC50 that approximates it; ≥ and ≤ were set here for values at or beyond the usual limits of such assays
HLA-C*12:03 = experiment: as above; settings: source organism: Giardia lamblia ATCC 50803
HLA-C*15:02 = experiment: as above
HLA-A*30:01 = experiment: as above; settings: source organism: Brucella melitensis
[5] = source organism: Giardia lamblia ATCC 50803
[6] = source organism: Listeria monocytogenes serotype 4b str. H7858
[7] = source organism: Brucella abortus
[8] = source organism: Brucella melitensis
[9] = source organism: Burkholderia pseudomallei 1710b

RHIAIQVCY
pKd (HLA-B*08:01; [5]): ≤ 4.70
pKd (HLA-A*26:01; [5]): ≤ 4.70
pKd (HLA-A*01:01; [5]): ≤ 4.70
pKd (HLA-A*03:01; [5]): ≤ 4.70
pKd (HLA-A*02:01 [1]; [5]): ≤ 4.70
pKd (HLA-B*07:02; [5]): ≤ 4.70
pKd (HLA-A*69:01; [5]): ≤ 4.70
pKd (HLA-B*73:01; [5]): ≤ 4.70
pKd (HLA-B*40:01; [5]): ≤ 4.70
pKd (HLA-A*31:01; [5]): ≤ 4.70
pKd (HLA-B*58:01; [5]): ≤ 4.70
pKd (HLA-B*35:01): 5.93
pKd (HLA-B*44:02; [5]): ≤ 4.70
pKd (HLA-B*27:05; [5]): 5.47
pKd (HLA-B*15:01; [5]): 5.76
pKd (HLA-A*11:01; [5]): ≤ 4.70

ALGGGATGV
pIC50 (HLA-A*02:01 [2]; source organism: Mycobacterium tuberculosis): 5.85

FRDEAGAIL
pKd (HLA-A*26:01; [6]): ≤ 4.70
pKd (HLA-A*02:03): ≤ 4.70
pKd (HLA-C*05:01; source organism: Listeria monocytogenes FSL R2-503): 5.66
pKd (HLA-B*15:17): ≤ 4.70
pKd (HLA-B*57:01): ≤ 4.70
pKd (HLA-A*68:02): ≤ 4.70
pKd (HLA-B*46:01): ≤ 4.70
pKd (HLA-B*18:01): ≤ 4.70
pKd (HLA-A*03:01; [6]): ≤ 4.70
pKd (HLA-A*02:01 [1]; [6]): ≤ 4.70
pKd (HLA-A*69:01; [6]): ≤ 4.70
pKd (HLA-A*24:03 [3]): ≤ 4.70
pKd (HLA-A*02:16): ≤ 4.70
pKd (HLA-A*02:12): ≤ 4.70
pKd (HLA-A*02:11): ≤ 4.70
pKd (HLA-B*15:01; [6]): ≤ 4.70
pKd (HLA-A*29:02): ≤ 4.70
pKd (HLA-B*51:01): ≤ 4.70
pKd (HLA-A*02:19): ≤ 4.70
pKd (HLA-B*27:03): ≤ 4.70

KFIILLTSF
pKd (HLA-A*24:03 [4]): 6.80
pKd (HLA-C*14:02; source organism: Bacillus cereus G9241): 5.91

YLYLRPYAL
pKd (HLA-C*12:03): 7.54
pKd (HLA-B*08:01; [5]): 7.80
pKd (HLA-C*14:02; [5]): 6.82
pKd (HLA-C*15:02; [5]): 5.52

LGIVCPI
pIC50 (HLA-A*02:01 [2]; source organism: Human papillomavirus 16): 6.15

APAAAAQAV
pKd (HLA-C*14:02; source organism: Mycobacterium tuberculosis C): 5.51

SRIGAWASK
pKd (HLA-A*30:01): 5.90
pKd (HLA-B*08:01; [7]): ≤ 4.70
pKd (HLA-A*26:01; [7]): ≤ 4.70
pKd (HLA-A*01:01; [7]): ≤ 4.70
pKd (HLA-A*03:01; [8]): 5.23
pKd (HLA-A*02:01 [1]; [7]): ≤ 4.70
pKd (HLA-B*07:02; [7]): ≤ 4.70
pKd (HLA-A*69:01; [7]): ≤ 4.70
pKd (HLA-B*73:01; source organism: Brucella suis 1330): ≤ 4.70
pKd (HLA-B*40:01; [7]): ≤ 4.70
pKd (HLA-A*31:01; [7]): ≤ 4.70
pKd (HLA-B*58:01; [7]): ≤ 4.70
pKd (HLA-B*44:02; [7]): ≤ 4.70
pKd (HLA-B*27:05; [8]): 7.27
pKd (HLA-B*15:01; [7]): ≤ 4.70
pKd (HLA-A*11:01; [8]): 5.91

KTADVTVVF
pKd (HLA-C*05:01; [9]): 7.22
pKd (HLA-C*15:02; [9]): 6.60

VLDVGDAYFSV
pIC50 (HLA-A*02:01 [2]; source organism: Human immunodeficiency virus 1): 5.15

— the Immune Epitope Database (IEDB)
